According to patent publication US20190092852A1 (Genentech, published 2019):
Like-named read-outs stand apart in the source and are kept apart here.

B1: cyno IL-33 N-His (ligand)
chain: MGSSHHHHHHSSGLVPRGSHMSITGISPITESLASLSTYNDQSITFALEDESYEIYVEDLKKDKKKDKVLLSYYESQHPSSESGDGVDGKMLMVTLSPTKDFWLQANNKEHSVELHKCEKPLPDQAFFVLHNRSFNCVSFECKTDPGVFIGVKDNHLALIKVDYSENLGSENILFKLSET
B2: human IL-33 (R&D Systems, #3625-IL-010/CF) (ligand, UniProt O95760 112-270, looked up)
chain: SITGISPITEYLASLSTYNDQSITFALEDESYEIYVEDLKKDEKKDKVLLSYYESQHPSNESGDGVDGKMLMVTLSPTKDFWLHANNKEHSVELHKCEKPLPDQAFFVLHNMHSNCVSFECKTDPGVFIGVKDNHLALIKVDSSENLCTENILFKLSET

How the values were obtained:
[1] = molecular target: T1, human ST2L on HEK-BLUE IL-33/IL-1beta cells (human, UniProt Q01638 19-556); test: cell-based or functional assay
T1 sequence: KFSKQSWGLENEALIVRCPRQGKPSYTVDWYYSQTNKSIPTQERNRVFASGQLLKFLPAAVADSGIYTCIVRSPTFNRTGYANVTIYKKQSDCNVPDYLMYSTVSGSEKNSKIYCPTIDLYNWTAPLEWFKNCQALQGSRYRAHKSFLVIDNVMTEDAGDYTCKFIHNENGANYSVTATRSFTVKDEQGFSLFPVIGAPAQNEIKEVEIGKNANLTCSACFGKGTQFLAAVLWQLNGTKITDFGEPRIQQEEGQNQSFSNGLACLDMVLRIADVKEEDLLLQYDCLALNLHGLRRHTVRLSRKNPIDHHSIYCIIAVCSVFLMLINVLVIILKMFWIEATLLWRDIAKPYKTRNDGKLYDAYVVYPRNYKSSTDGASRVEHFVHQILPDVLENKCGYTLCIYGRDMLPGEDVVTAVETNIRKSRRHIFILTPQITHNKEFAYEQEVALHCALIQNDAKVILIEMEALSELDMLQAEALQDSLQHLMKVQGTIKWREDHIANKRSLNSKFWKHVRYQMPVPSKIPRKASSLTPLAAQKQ

[2] = molecular target: T1, human ST2L on HEK-BLUE IL-33/IL-1beta …; test: cell-based or functional assay; remark: listed apart in the source
[3] = molecular target: B2; test: cell-based or functional assay
[4] = molecular target: B2; test: cell-based or functional assay; remark: listed apart in the source
[5] = molecular target: B2; test: cell-based or functional assay; remark: listed apart in the source
[6] = molecular target: B2; test: cell-based or functional assay; remark: listed apart in the source
[7] = molecular target: B2; test: cell-based or functional assay; remark: listed apart in the source
[8] = molecular target: T2, biotinylated human IL-33 (human, UniProt O95760 112-270, biotin-labeled with EZ-LINK NHS-PEG4-Biotin); test: competitive ELISA, biotin-huIL-33 to coated hST2-Fc
T2 construct: also called biotin-huIL-33
T2 sequence (looked up): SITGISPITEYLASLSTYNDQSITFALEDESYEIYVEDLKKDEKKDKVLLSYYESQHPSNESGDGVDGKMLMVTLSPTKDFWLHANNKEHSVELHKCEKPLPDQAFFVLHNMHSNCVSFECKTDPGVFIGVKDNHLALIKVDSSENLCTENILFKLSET
Description: The ability of the anti-IL-33 antibody 10C12.38.H6.87Y.58I IgG4 and each anti-IL-33 antibody listed in Table 5 (RG1-RG20) to block either human IL-33 or cyno IL-33 binding to human ST2 receptor was tested in a competitive binding ELISA. Briefly, 1 μg/ml of recombinant human ST2-Fc chimera protein prepared in coating buffer (50 mM sodium carbonate, pH 9.6) was coated on a 384-well MAXISORP® plate (Nalgene Nunc International; Rochester, N.Y.) and incubated overnight at 4° C. On the next day, non-specific binding was blocked with PBS containing 0.5% (w/v) solution of bovine serum albumin (BSA). Fixed concentrations of biotinylated human or cyno IL-33 prepared in assay buffer (25 mM PBS, pH 7.2, 0.1% BSA, 0.05% TWEEN®-20) were mixed with an equal volume of serially-diluted anti-IL-33 antibodies or assay buffer alone and incubated for 1 h at room temperature. The final assay concentrations of biotinylated human IL-33 or cyno IL-33 were 20 pM and 45 pM, respectively, and the final assay concentration of each antibody ranged from 0-300 nM. The pre-mixed solutions were added to the ST2-Fc coated plate and incubated for 1 h at room temperature. The binding of biotinylated IL-33 to coated ST2-Fc was detected by the sequential addition of Streptavidin Poly-HRP80 (Fitzgerald; Buckinghamshire, UK) and 3,3′,5,5′-tetramethyl benzidine (TMB) Microwell Peroxidase Substrate System (KPL; Gaithersburg, Md.). The absorbance (450 nm) was recorded using a […] ASCENT® plate reader (Thermo Scientific; Rockford, Ill.). The binding activity (%) of biotin-IL-33 to ST2 in the presence of anti-IL-33 was plotted as a function of antibody concentration. The data generated were fitted to a four-parameter equation to determine IC₅₀ values for each antibody (FIGS. 25A and 25B) using Prism software (Graphpad Software; La Jolla, Calif.). The maximum blocking (%) of each antibody was calculated as the ratio of the reduction in signal measured in the presence of antibody relative to the difference between the signal with IL-33 alone and background measurements.

[9] = molecular target: B2; test: SPR Biacore T200, 25 C
Outline: (§1)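 Antibodies captured via anti-Fc on CM5 chip; IL-33 injected at 3.7–100 nM (three-fold series), 4 min association, 10 min dissociation, 30 μl/min, ADA pH 7.4 buffer with 0.15 M NaCl, EDTA, Tween-20, at 25 °C or 37 °C. KD = koff/kon from 1:1 Langmuir fit; t1/2 = ln(2)/(60*koff).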

[10] = molecular target: B1; test: SPR Biacore T200, 25 C
Outline: as §1

[11] = molecular target: B2; test: cell-based or functional assay; remark: listed apart in the source
[12] = molecular target: B2; test: SPR Biacore T200, 37 C
Outline: as §1

[13] = molecular target: B1; test: SPR Biacore T200, 37 C
Outline: as §1

[14] = molecular target: T3, biotinylated cyno IL-33 (cynomolgus monkey, UniProt A0A2K5W3I1 112-269, biotin-labeled with EZ-LINK NHS-PEG4-Biotin); test: competitive ELISA, biotin-cyIL-33 to coated hST2-Fc
T3 construct: also called biotin-cyIL-33
T3 sequence: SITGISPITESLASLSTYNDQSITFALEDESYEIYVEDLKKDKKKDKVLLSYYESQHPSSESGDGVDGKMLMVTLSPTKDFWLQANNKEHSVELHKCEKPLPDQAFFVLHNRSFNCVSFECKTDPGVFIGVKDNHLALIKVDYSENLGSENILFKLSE
Outline: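 Recombinant human ST2-Fc coated at 1 μg/ml; biotin-IL-33 (final 20 pM human, 45 pM cyno) premixed 1 h RT with serially diluted antibody (0–300 nM final), then bound to ST2-Fc 1 h RT. Streptavidin-polyHRP/TMB, A450; IC₅₀ from four-parameter fit, max blocking relative to IL-33-alone signal minus background.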

B1 was tested, and the “EC50 (SEAP reporter OD 620, HEK-BLUE IL-33/IL-1beta cells)” value [1] was 4 pM.

With B2 the “EC50 (SEAP reporter OD 620, HEK-BLUE IL-33/IL-1beta cells)” value [2] was 5.5 pM.

B3: H4H9640P (antibody, IgG4, V domains shown)
VH: QVQLQESGPGLVKPSETLSLTCTVSGGSISSYYWSWIRQPPGKGLELIGYIYYSGSTNYNPSLKSRVTISVDTSKNHFSLKLSSVTAADTAVYYCARSQYTSSWYGSFDIWGQGTMVTVSS
VL: DIQMTQSPSSVSASVGDRVTITCRASQGISTWLAWFQQKPGKAPKLLIYAASTLQGGVPSRFSGSGSGPEFTLTISSLQPEDFATYYCQQANSFPWTFGQGTKVEIK
notes: also called RG6
In the case of B3, the “IC50; IFN-gamma ELISA, primary human NK cells, 260 pM hIL-33 + IL-12” value [3] is reported as 2.4e-09 M, the “IC50, IL-33-induced phospho-p38 in primary human basophils, 500 pM hIL-33” value [4] is reported as 3.9e-13 M and the “IC50; SEAP reporter (OD 620), HEK-BLUE IL-33/IL-1beta cells, 10 pM hIL-33” value [5] is reported as 6.1e-10 M. For the same binder, the “Ph-p38 MFI at 0.4 nM Ab (500 pM human IL-33, primary basophils)” value [6] was 99 MFI, the “IC50 (read off the curve)” value [7] was ~0.4 pM and the IC50 [8] was 190 pM. The “Maximum Blocking” value [8] was 80%, the Kd [9] was 549 pM and the koff [9] was 0.000438 s⁻¹. It also gave a kon [9] of 797000 M⁻¹ s⁻¹, a t1/2 [9] of 26 min and a Kd [10] of 2170 pM. The koff [10] was 0.000528 s⁻¹, the kon [10] was 244000 M⁻¹ s⁻¹ and the t1/2 [10] was 22 min. For the same binder, the “Ph-p38 MFI at 2 nM Ab (500 pM human IL-33, primary basophils)” value [11] was 52 MFI, the Kd [12] was 359 pM and the koff [12] was 0.000626 s⁻¹. It also gave a kon [12] of 1.74e+06 M⁻¹ s⁻¹, a t1/2 [12] of 18 min and a Kd [13] of 4200 pM. The koff [13] was 0.0392 s⁻¹, the kon [13] was 9.34e+06 M⁻¹ s⁻¹ and the t1/2 [13] was 0 h. The IC50 [14] was 45000 pM and the “Maximum Blocking” value [14] was 25%.
